pKd, pKi: −log10 of the molar value. Where two headings read alike, the source gives them in different places.
How the values were obtained:
[1] = biological target: His-tagged TetR (Tet repressor) (UniProt P04483); assay: EMSA
[2] = biological target: His-tagged TetR (Tet repressor) (UniProt P04483); assay: competition EMSA
[3] = biological target: His-tagged TetR (Tet repressor) (UniProt P04483); assay: competition EMSA; remark: listed apart in the source

His-tagged TetR (Tet repressor), sequence (P04483 whole entry): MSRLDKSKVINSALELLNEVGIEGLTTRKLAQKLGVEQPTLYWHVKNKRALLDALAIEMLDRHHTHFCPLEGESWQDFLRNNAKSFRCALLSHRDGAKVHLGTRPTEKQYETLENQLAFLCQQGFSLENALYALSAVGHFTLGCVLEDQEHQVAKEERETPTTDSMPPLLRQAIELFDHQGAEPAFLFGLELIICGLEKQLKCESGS

| Sequence | pKd [1] | pKi [2] | pKi [3] |
| --- | --- | --- | --- |
| TTGACACTCTATCATTGATAGAGTTAT (double strand) [tetO dsDNA (ODA68/ODA69)] | 7.22 |  |  |
| GGGAGAUACGCGUAUCAAGCAGCAUGUUAUGGGUCAUCACAGACCAGAGAAAAGCUUGAUACGCGAAAGGAG [TetR aptamer 12-1R (pDA1), active] |  | 7.12 | 7.24 |

— article PMC3239198
